Results reported in patent US20130130268A1 (published 2013).

B1: human PDGF-BB (ligand)
chain 1: SLGSLTIAEPAMIAECKTRTEVFEISRRLIDRTNANFLVWPPCVEVQRCSGCCNNRNVQCRPTQVQLRPVQVRKIEIVRKKPIFKKATVTLEDHLACKCETVAAARPVT
chain 2: B1 chain 1
notes: The name BB means a homodimer of B chains
B2: Vlambda16F4 rHumaab (antibody, human IgG1, V domains shown)
VH: GLVKPLETLSLTCSVSGGSVSDGSYFWNWIRQPPGKGLEWIGYAYSRGTTNYSPSLKGRITISVDKSKNQISLKLTSVTPADTAVYYCARDSFEIWGQGTMVTV
VL: QSALTQPASVSGSPGQSITISCTGTSSDVGGYNYVSWYQHHPGKAPKLMIYEVSHRPSGVSNRFSGSKSGNTASLTISGLQAEDEADYYCSSYTSSSHVVFGGGTKLTVL
notes: Tested as a whole human IgG1 made in CHO cells (pDR12 vector, b12 constant regions, with Fc)
B3: Vk16F4 rHumaab (antibody, human IgG1, V domains shown)
VH: B2 VH
VL: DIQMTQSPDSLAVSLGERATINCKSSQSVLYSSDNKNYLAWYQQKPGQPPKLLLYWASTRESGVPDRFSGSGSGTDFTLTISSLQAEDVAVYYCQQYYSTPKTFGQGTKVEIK
notes: Tested as a whole human IgG1 made in CHO cells (pDR12 vector, b12 constant regions, with Fc); also called Vκ16F4; rHumaab VK16F4
B4: Vk13B8 rHumaab (antibody, human IgG1, V domains shown)
VH: B2 VH
VL: DIQMTQSPSSLSASVGDRVTITCRASQGISNYLAWFQQKPGKAPKSLIYAASSLQSGVPSKFSGSGSGTDFTLTISSLQPEDFATYYCQQYNSFPYTFGQGTKLEIK
notes: Tested as a whole human IgG1 made in CHO cells (pDR12 vector, constant regions of antibody b12, with Fc); also called Vκ13B8; recombinant human monoclonal auto-antibody Vk13B8

Molecular target: T1, His-tagged PDGFR alpha (aminoacids 1-834 of human PDGFR alpha fused to a 6×histidine tag) (human, UniProt P16234 24-834)
T1 construct: Complete extracellular and transmembrane regions plus part of the intracellular domain; Expressed in HeLa cells, purified from lysates and immobilized on the IAsys biosensor; The cDNA encodes residues 1-834; also called immobilized His-tagged PDGFR alpha; truncated conformer of PDGFR alpha
T1 sequence (P16234 other isoform, or with tags, fused parts or gaps): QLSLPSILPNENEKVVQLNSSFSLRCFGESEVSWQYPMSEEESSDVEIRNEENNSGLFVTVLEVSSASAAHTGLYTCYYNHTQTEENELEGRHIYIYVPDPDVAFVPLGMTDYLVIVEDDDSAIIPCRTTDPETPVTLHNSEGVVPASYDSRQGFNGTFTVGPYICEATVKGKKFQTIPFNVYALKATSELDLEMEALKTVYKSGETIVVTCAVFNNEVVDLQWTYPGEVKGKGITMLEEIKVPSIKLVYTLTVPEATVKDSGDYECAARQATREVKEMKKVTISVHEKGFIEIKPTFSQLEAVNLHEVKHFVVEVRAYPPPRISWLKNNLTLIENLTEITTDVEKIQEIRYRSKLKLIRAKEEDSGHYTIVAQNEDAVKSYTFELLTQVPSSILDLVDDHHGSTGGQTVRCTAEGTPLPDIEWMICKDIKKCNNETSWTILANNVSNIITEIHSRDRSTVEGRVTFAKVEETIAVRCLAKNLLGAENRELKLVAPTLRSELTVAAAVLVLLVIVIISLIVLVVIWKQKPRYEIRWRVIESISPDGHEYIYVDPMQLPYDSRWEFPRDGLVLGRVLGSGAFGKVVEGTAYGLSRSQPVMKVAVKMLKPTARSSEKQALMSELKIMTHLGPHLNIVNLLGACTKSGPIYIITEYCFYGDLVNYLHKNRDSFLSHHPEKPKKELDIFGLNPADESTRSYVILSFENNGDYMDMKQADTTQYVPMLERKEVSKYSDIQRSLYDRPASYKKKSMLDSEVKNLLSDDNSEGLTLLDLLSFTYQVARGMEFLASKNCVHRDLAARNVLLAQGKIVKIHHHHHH
Test: IAsys optical biosensor, immobilized His-tagged PDGFR alpha
Protocol: A detailed characterization of rHumaab interaction with human PDGFR alpha was performed on an optical biosensor, using as a molecular bait a homemade truncated conformer of this receptor containing the complete extracellular and transmembrane regions joined to a poly-histidine tail (HIS tag) replacing part of the intracellular domain, and serving both as an anchor to the biosensor surface and as a spacer. Preservation of proper folding of the immobilized receptor into a naive-like conformation was verified by monitoring the interaction with its natural binding partner (PDGF-BB) and with two mouse monoclonal antibodies specific for conformational PDGFR alpha epitopes (FIG. 6a). Using this approach, both kinetics and equilibrium parameters of the interaction between PDGF-BB, each rHumaab and PDGFR alpha were determined. […] Additionally, the analysis of association and dissociation rate constants for soluble ligands binding to PDGFR alpha, further defined the mechanistic properties of the macromolecular recognition process. […] Conversely, differences in equilibrium constants among rHumaab were reflected by corresponding differences in dissociation rate constants (kdiss=, 0.035 s⁻¹, 0.02 s⁻¹, and 0.003 s⁻¹, respectively for Vk13B8, Vk16F4 and Vlambda16F4).

Row | Binder | Kd | kon | koff
1 | B1 | 0.23 nM | 3e+07 M⁻¹ s⁻¹ | –
2 | B2 | 16.6 nM | – | 0.003 s⁻¹
3 | B3 | 71.4 nM | – | 0.02 s⁻¹
4 | B4 | 184 nM | – | 0.035 s⁻¹
